Ends that are not written are not given here.
Target: T1, αvβ6 Integrin (human, UniProt P06756 31-1048; P18564 22-788)
T1 construct: whole, on cells; also called αvβ6 Integrin surface antigen
Assay: flow cytometry, 10 nM biotinylated binder on human tumor cell lines, Streptavidin-PerCP-Cy5.5
Method: The binding capability of peptides or peptidomimetics, of synthetic compounds according to the invention to different cell lines displaying particular targets was investigated by using flow cytometry. Detached cells were incubated with biotinylated peptide/peptidomimetic or biotinylated synthetic compound in blocking buffer for at least 30 min of ice. The cells were washed twice with washing buffer followed by incubation with streptavidin labeled with the Peridinin-chlorophyll protein PerCP-Cy5.5 (BD Biosciences) for 15 minutes on ice. After one additional wash step, samples were analyzed using FACS Canto (at least 10,000 cells per sample were counted) for cells which have bound the biotinylated reagent plus the streptavidin-PerCP-Cy5.5. Overlay histograms of cells incubated with peptide or control peptide were generated and the geometrical mean fluorescence of each sample was determined in FloJo. The EC50 measurements were calculated using Graph Prism software.

T1 sequence (P06756 31-1048, chain 1 of 2): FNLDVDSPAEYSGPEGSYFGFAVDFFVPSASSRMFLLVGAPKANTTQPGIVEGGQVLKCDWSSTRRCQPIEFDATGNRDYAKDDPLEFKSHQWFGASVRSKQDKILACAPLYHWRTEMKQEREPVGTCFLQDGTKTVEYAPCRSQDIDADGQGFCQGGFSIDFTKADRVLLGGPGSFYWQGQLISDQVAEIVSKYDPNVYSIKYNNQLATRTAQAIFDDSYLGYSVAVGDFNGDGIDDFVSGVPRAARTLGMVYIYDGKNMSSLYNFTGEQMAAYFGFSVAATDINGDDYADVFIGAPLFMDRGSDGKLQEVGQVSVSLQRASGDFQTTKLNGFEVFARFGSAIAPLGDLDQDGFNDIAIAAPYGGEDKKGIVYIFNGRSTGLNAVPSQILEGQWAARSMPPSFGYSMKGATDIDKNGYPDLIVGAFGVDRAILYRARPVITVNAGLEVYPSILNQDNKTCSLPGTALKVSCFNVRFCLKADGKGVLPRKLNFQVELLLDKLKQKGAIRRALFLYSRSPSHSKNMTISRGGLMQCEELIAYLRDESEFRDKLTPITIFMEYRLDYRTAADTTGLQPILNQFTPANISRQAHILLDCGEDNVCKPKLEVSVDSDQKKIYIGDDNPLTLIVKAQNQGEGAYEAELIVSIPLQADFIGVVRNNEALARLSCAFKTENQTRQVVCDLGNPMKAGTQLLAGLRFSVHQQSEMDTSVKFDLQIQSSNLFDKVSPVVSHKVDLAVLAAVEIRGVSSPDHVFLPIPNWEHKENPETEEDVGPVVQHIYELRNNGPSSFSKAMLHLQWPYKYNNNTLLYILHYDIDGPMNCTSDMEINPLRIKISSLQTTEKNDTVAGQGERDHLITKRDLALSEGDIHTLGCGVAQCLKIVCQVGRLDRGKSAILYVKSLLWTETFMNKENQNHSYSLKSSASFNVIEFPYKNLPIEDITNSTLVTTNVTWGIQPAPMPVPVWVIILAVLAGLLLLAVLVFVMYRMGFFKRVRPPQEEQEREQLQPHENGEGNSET
T1 sequence (P18564 22-788, chain 2 of 2): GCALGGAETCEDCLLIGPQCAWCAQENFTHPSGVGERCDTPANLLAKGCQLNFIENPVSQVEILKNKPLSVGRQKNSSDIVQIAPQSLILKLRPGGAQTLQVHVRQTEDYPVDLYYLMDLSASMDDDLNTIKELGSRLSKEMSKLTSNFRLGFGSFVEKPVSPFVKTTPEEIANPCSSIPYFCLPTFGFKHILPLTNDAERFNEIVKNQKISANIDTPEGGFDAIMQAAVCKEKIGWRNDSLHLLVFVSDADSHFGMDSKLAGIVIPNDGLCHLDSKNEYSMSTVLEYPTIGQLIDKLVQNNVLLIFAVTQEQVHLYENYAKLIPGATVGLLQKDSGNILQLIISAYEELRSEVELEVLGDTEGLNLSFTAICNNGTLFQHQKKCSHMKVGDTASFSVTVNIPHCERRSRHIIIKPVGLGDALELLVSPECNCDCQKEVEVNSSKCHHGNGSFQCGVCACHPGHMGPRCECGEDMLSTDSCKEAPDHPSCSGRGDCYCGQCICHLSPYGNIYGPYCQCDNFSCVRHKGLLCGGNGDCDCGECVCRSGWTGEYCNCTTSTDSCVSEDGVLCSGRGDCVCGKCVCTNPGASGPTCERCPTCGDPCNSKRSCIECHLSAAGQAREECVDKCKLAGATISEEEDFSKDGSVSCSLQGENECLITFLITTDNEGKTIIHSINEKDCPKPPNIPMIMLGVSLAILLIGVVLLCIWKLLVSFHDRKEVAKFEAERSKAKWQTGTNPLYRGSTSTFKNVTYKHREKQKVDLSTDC

B1: biotinylated peptide binder SEQ ID No 2 targeting αvβ6 Integrin (peptide)
peptide: RGDLATLRQL
modifications: also: biotinylated, site not given here
notes: Synthetic peptide, biotinylated for flow cytometry
- binding result: binds
